Several values for one entry are separate records, joined by “and”; a condition that tells them apart may be missing. Equal entries are not always repeated. Entries after “also recorded” stand apart in the source; their conditions may differ.
Columns and labels:
Type in all cases: in vivo, Balb/c mice
[1] = system: 4T1 mouse mammary carcinoma cells; assay: 4T1 model: number of metastatic lung nodules; conditions: Day 37
Experimental: (§1) Five groups, each consisting of 10 female Balb/c mice were assigned to this study (see Table 5 below). All animals received subcutaneous implantation of 4T1 mouse mammary carcinoma cells in the 4th inguinal mammary gland. Treatment was initiated on the day of implantation (defined as Day 1). Animals from Group 1 (Gr. 1) received IP treatment of saline vehicle control twice a week for the duration of the study. Animals from Group 2 (Gr. 2) received 10 mg/kg of docetaxel weekly for five weeks by IP administration. Animals from Group 3 (Gr. 3) received 10 mg/kg of docetaxel weekly for two weeks and 10 mg/kg of AB-16B5, twice weekly for five weeks. Animals from Group 4 (Gr. 4) received 10 mg/kg of docetaxel weekly and 5 mg/kg of 16B5 twice weekly each over the course of a five weeks treatment. Animals from Group 5 (Gr. 5) received AB-16B5 twice weekly for five weeks. On Day 36, the primary tumors were excised and on Day 37, the animals were sacrificed and the number of grossly visible metastatic nodules on the surface of the lungs was counted.

4T1 primary tumors = assay: 4T1 model: CD45+ immune cells in primary tumors
Experimental: as §1
The primary tumors excised at Day 16 post implantation, were processed with collagenase and hyaluronidase and immune cells were purified by positive selection using magnetic latex beads coated with an anti-CD45 antibody. […]

4T1 lung metastases [2] = assay: Flow cytometry immunophenotyping of lymphocytes from 4T1 lung metastases; conditions: Day 36 post-implantation, FIG. 4A and FIG. 4B
Experimental: (§2) Balb/c mice were orthotopically implanted with 5×10^5 4T1 cells in the 4′ mammary fat pad. Animals received intraperitoneal (IP) AB-16B5 (murine 16B5) 10 mg/kg twice weekly in combination with IP docetaxel 10 mg/kg weekly (Group 15: animals 1501, 1502 and 1503) or IP AB-16B5 10 mg/kg twice weekly (Group 25: […]). The primary tumor was surgically removed at Day 16 post-implantation. The animals were sacrificed at Day 36 and the lungs were excised and each visible lung metastasis was carefully dissected. Each visible metastatic nodule, if any, was excised and processed for a rapid expansion of tumor infiltrating lymphocyte protocol. The metastatic nodules were sectioned into small pieces of 2-3 mm edge that were individually grown in 24 well plates containing culture medium supplemented with FBS, IL2, IL7, ITS (1,000 U/mL IL2, 2.0 ng/mL IL7 and 1× insulin—transferrin—selenium cocktail (Gibco 41400-045)).
The lymphocytes were stimulated with anti-CD3 and anti-CD28 monoclonal antibodies. Lymphocytes from each donor animal were pooled and processed for flow cytometry analysis with antibodies against CD45 (lymphocyte common antigen), CD3, CD4, CD8 and CD19 (B-cell biomarker) (FIG. 4A and FIG. 4B). The resulting single cell preparations were initially selected on their size to select those corresponding to immune cells. […]

4T1 tumor cells = assay: INFγ secretion of tumor infiltrating lymphocytes co-cultured with 4T1 cells (ELISA)
Experimental: as §2
After three weeks in culture, 100,000 cells were taken from each of the lymphocyte cultures (six cultures corresponding to three animals from Group 15 and three animals from Group 25) and placed in culture with 100,000 4T1 tumor cells. After overnight co-culture, the supernatant was recovered for INFγ quantification by ELISA.

4T1 lung metastases [3] = assay: 4T1 orthotopic model: immunohistochemistry of lung metastases
Text: Balb/c mice were orthotopically implanted with 5×10^5 4T1 cells in the 4′ mammary fat pad. Animals received IP saline treatment thrice weekly. The primary tumor was surgically removed at Day 16 post-implantation. The animals were sacrificed at Day 36 and the lungs were excised. Tissues were fixed in paraformaldehyde and processed for paraffin embedding. Tissue sections were probed with anti-mouse CD3, anti-mouse CD8 and anti-mouse B220 antibodies. […] Results presented in FIG. 1 indicate that the 4T1 lung metastases create an immune cold microenvironment which prevents the infiltration of B and T lymphocytes in tumors. Delineated regions indicate that CD3 and CD8 T lymphocytes are restricted in the tumor margin as a consequence of EMT.
Animals bearing 4T1 tumors were treated with the AB-16B5 antibody (murine 16B5) thrice a week IP at 10 mg/kg. The primary tumor was surgically removed at Day 16 post-implantation. The animals were sacrificed at Day 36 and the lungs were excised. Tissues were fixed in paraformaldehyde and processed for paraffin embedding. Tissue sections were probed with anti-mouse CD3, anti-mouse CD8 and anti-mouse B220 antibodies.

[4] = 10 mg/kg IP thrice a week, Day 36

Molecule	metastatic lung nodules ([1]; Group 2: docetaxel 10 mg/kg IP 1X/week for 5 weeks)	CD45+ immune cells in primary tumors (4T1 primary tumors; Group 2: docetaxel 10 mg/kg IP 1X/week)	infiltration of 4T1 lung metastases by B and T lymphocytes (4T1 lung metastases [2])	metastatic lung nodules ([1]; Group 5: AB-16B5 10 mg/kg IP 2X/week for 5 weeks)	INFγ (4T1 tumor cells; Group 25 (samples 2501-2503, one value per animal): AB-16B5 10 mg/kg IP twice weekly, overnight co-culture with 4T1 cells)	INFγ secretion level of lymphocytes isolated from lung metastatic nodules (4T1 tumor cells; in the presence of 4T1 cells)	infiltration of lung metastases with CD3 and CD8 T cells (4T1 lung metastases [3]; [4])	plasmocytes penetration in tumors (4T1 lung metastases [3]; [4])	lung metastases, number and size (4T1 lung metastases [3]; 10 mg/kg IP thrice a week, primary tumor removed Day 16, sacrifice Day 36)	B and T lymphocytes infiltration in 4T1 lung metastases (4T1 lung metastases [3]; FIG. 2A)	CD45+ immune cells in primary tumors (4T1 primary tumors; Group 5: AB-16B5 10 mg/kg IP 2X/week)
CC(=O)O[C@@]12CO[C@@H]1C[C@H](O)[C@@]1(C)C(=O)[C@H](O)C3=C(C)[C@@H](OC(=O)[C@H](O)[C@@H](NC(=O)OC(C)(C)C)c4ccccc4)C[C@@](O)([C@@H](OC(=O)c4ccccc4)[C@H]21)C3(C)C [docetaxel]	as many metastatic lung nodules as the saline control group; also recorded: relatively ineffective	very few CD45+ were present									
murine 16B5: murine anti-clusterin (anti-sCLU) monoclonal antibody 16B5 used in the mouse studies; VL SEQ ID NO:7, VH SEQ ID NO:8 (antibody, V domains shown, Murine 16B5 VH; Murine 16B5 VL) VH: EVQLQQSGAELVKPGASVRLSCTTSGFNIKDIYMHWVKQRPEQGLEWIGRIDPAYGNTKYDPKFQGKATITADTSSNTAYLQLSSLTSEDTAVYYCARRYDTAMDYWGQGTSVTVSS VL: DIVMSQSPSSLAVSAGEKVTMSCKSSQSLLNSRTRKNYLAWYQQKPGQSPKLLIYWASTRESGVPDRFTGSGSGTDFTLTISSVQAEDLAVYYCKQSYNLWTFGGGTKLEFK			infiltrated by B and T lymphocytes	less metastatic lung nodules than the saline-control-treated mice	8538.8 pg/mL and 3770.0 pg/mL and 4538.8 pg/mL	high levels	densely infiltrated with CD3 and CD8 T cells	evidence of plasmocytes penetration	fewer and much smaller lung metastases	Results in B (B220) and T (CD3, CD4, CD8) Lymphocytes Infiltration	more immune cells

Source: US20240199758A1, “METHOD FOR ALLOWING IMMUNE CELLS INFILTRATION IN TUMORS” (Alethia Biotherapeutics Inc., priority 2021, published 2024)
